Laboratory results: the Immune Epitope Database (IEDB)

Columns and labels:
Test in all cases: IEDB peptide-MHC binding, purified MHC/competitive/radioactivity; filed as Kd, often an IC50 or EC50 that approximates it; ≥ and ≤ were set here for values at or beyond the usual limits of such assays
HLA-A*68:01 = molecular target: HLA-A*68:01
HLA-A*33:01 = molecular target: HLA-A*33:01
HLA-A*03:01 = molecular target: HLA-A*03:01
HLA-A*31:01 = molecular target: HLA-A*31:01
HLA-A*11:01 = molecular target: HLA-A*11:01
[1] = source organism: Vaccinia virus WR
[2] = source organism: Vaccinia virus Copenhagen
[3] = source organism: Dengue virus 3 Sri Lanka/1266/2000
[4] = source organism: Dengue virus 2 Jamaica/1409/1983
[5] = source organism: SARS coronavirus Tor2
[6] = source organism: Dengue virus 4 Philippines/H241/1956
[7] = source organism: Mammarenavirus guanaritoense
[8] = source organism: Dengue virus 3 Martinique/1243/1999
[9] = source organism: Lassa virus Josiah
[10] = source organism: Dengue virus 1 Brazil/97-11/1997
[11] = source organism: Dengue virus 2 Peru/IQT2913/1996
[12] = source organism: Mammarenavirus brazilense

Sequence: LTPIFSDLLK
- Kd (HLA-A*68:01; [1]): 17.2 nM
- Kd (HLA-A*33:01; [1]): 3900 nM
- Kd (HLA-A*03:01; [1]): 24.1 nM
- Kd (HLA-A*31:01; [1]): 4120 nM
- Kd (HLA-A*11:01; [1]): 2.37 nM

Sequence: NTFVNFNSVK
- Kd (HLA-A*68:01; [2]): 39.8 nM
- Kd (HLA-A*33:01; [2]): 856 nM
- Kd (HLA-A*03:01; [2]): 74.6 nM
- Kd (HLA-A*31:01; [2]): 1670 nM
- Kd (HLA-A*11:01; [2]): 65.9 nM

Sequence: TTDDLVKSY
- Kd (HLA-A*68:01; [1]): 12100 nM
- Kd (HLA-A*33:01; [1]): 18100 nM
- Kd (HLA-A*03:01; [1]): ≥ 53000 nM
- Kd (HLA-A*31:01; [1]): 4700 nM
- Kd (HLA-A*11:01; [1]): 747 nM

Sequence: LLACTDPSER
- Kd (HLA-A*68:01; [1]): 856 nM
- Kd (HLA-A*33:01; [1]): 2420 nM
- Kd (HLA-A*03:01; [1]): ≥ 70100 nM
- Kd (HLA-A*31:01; [1]): 1260 nM
- Kd (HLA-A*11:01; [1]): ≥ 37000 nM

Sequence: TIFTLTVAWR
- Kd (HLA-A*68:01; [3]): 87.3 nM
- Kd (HLA-A*33:01; [3]): 391 nM
- Kd (HLA-A*31:01; [3]): 395 nM

Sequence: TLVVISVIFY
- Kd (HLA-A*68:01; [1]): 8660 nM
- Kd (HLA-A*33:01; [1]): ≥ 70000 nM
- Kd (HLA-A*03:01; [1]): 3490 nM
- Kd (HLA-A*31:01; [1]): 12500 nM
- Kd (HLA-A*11:01; [1]): 1370 nM

Sequence: FNMLKRERNR
- Kd (HLA-A*33:01; [4]): 53.7 nM

Sequence: DSVCACGLFK
- Kd (HLA-A*11:01; source organism: Mammarenavirus whitewaterense): 133 nM

Sequence: AQALNTLVK
- Kd (HLA-A*68:01; [5]): 1630 nM
- Kd (HLA-A*33:01; [5]): ≥ 28700 nM
- Kd (HLA-A*03:01; [5]): 247 nM
- Kd (HLA-A*31:01; [5]): 3640 nM
- Kd (HLA-A*11:01; [5]): 15.9 nM

Sequence: ALRGLPIRY
- Kd (HLA-A*03:01; [4]): 52.8 nM

Sequence: LLMHLVSLYK
- Kd (HLA-A*68:01; [1]): 17.5 nM
- Kd (HLA-A*33:01; [1]): 15800 nM
- Kd (HLA-A*03:01; [1]): 1.22 nM
- Kd (HLA-A*31:01; [1]): 85.1 nM
- Kd (HLA-A*11:01; [1]): 0.379 nM

Sequence: WFSQRGGSYK
- Kd (HLA-A*68:01; [5]): 142 nM
- Kd (HLA-A*33:01; [5]): 114 nM
- Kd (HLA-A*03:01; [5]): 190 nM
- Kd (HLA-A*31:01; [5]): 178 nM
- Kd (HLA-A*11:01; [5]): 152 nM

Sequence: TSEVHWNYK
- Kd (HLA-A*11:01; [6]): 84.9 nM

Sequence: ACNKIKGKK
- Kd (HLA-A*68:01; [7]): 1010 nM
- Kd (HLA-A*33:01; [7]): 664 nM
- Kd (HLA-A*03:01; [7]): 1390 nM
- Kd (HLA-A*31:01; [7]): 1840 nM
- Kd (HLA-A*11:01; [7]): 19000 nM

Sequence: DTVWEVQGYK
- Kd (HLA-A*68:01; [5]): 0.881 nM
- Kd (HLA-A*33:01; [5]): 1680 nM
- Kd (HLA-A*03:01; [5]): 58.4 nM
- Kd (HLA-A*31:01; [5]): 7500 nM
- Kd (HLA-A*11:01; [5]): 74.6 nM

Sequence: AMLFLISGK
- Kd (HLA-A*03:01; [8]): 185 nM
- Kd (HLA-A*11:01; [8]): 211 nM

Sequence: ILKRWGTIKK
- Kd (HLA-A*03:01; [4]): 47.4 nM

Sequence: KIAPGIADIR
- Kd (HLA-A*68:01; [1]): 5400 nM
- Kd (HLA-A*33:01; [1]): ≥ 53900 nM
- Kd (HLA-A*03:01; [1]): 1660 nM
- Kd (HLA-A*31:01; [1]): 355 nM
- Kd (HLA-A*11:01; [1]): 4510 nM

Sequence: SYSKMSVVMR
- Kd (HLA-A*68:01; [7]): 132 nM
- Kd (HLA-A*33:01; [7]): 55.9 nM
- Kd (HLA-A*03:01; [7]): 9970 nM
- Kd (HLA-A*31:01; [7]): 5.69 nM
- Kd (HLA-A*11:01; [7]): ≥ 21700 nM

Sequence: EFIRIIRPDY
- Kd (HLA-A*68:01; [1]): 12200 nM
- Kd (HLA-A*33:01; [1]): 934 nM
- Kd (HLA-A*03:01; [1]): ≥ 21400 nM
- Kd (HLA-A*31:01; [1]): 13700 nM
- Kd (HLA-A*11:01; [1]): ≥ 69800 nM

Sequence: IITVGMLIY
- Kd (HLA-A*68:01; [1]): 608 nM
- Kd (HLA-A*33:01; [1]): 1150 nM
- Kd (HLA-A*03:01; [1]): 1520 nM
- Kd (HLA-A*31:01; [1]): 1080 nM
- Kd (HLA-A*11:01; [1]): 6770 nM

Sequence: SIFAGHLKCR
- Kd (HLA-A*33:01; [8]): 116 nM

Sequence: EYRLKGESR
- Kd (HLA-A*33:01; [8]): 18.6 nM

Sequence: IVMLHTTER
- Kd (HLA-A*68:01; [6]): 19.7 nM
- Kd (HLA-A*33:01; [6]): 13.9 nM
- Kd (HLA-A*31:01; [6]): 2.36 nM

Sequence: FCKSCWFENK
- Kd (HLA-A*33:01; [9]): 9190 nM
- Kd (HLA-A*03:01; [9]): ≥ 20000 nM
- Kd (HLA-A*31:01; [9]): 2430 nM

Sequence: FLALGFFLR
- Kd (HLA-A*68:01; [8]): 2.14 nM
- Kd (HLA-A*33:01; [8]): 26.5 nM
- Kd (HLA-A*31:01; [8]): 43 nM

Sequence: LFLEEMLRTR
- Kd (HLA-A*33:01; [4]): 685 nM
- Kd (HLA-A*31:01; [4]): 732 nM

Sequence: LLALNDMGK
- Kd (HLA-A*03:01; [8]): 294 nM

Sequence: LFMALVAFLR
- Kd (HLA-A*68:01; [4]): 192 nM
- Kd (HLA-A*33:01; [4]): 93.2 nM
- Kd (HLA-A*31:01; [4]): 95.5 nM

Sequence: KLGEFGRAK
- Kd (HLA-A*03:01; [6]): 1.75 nM

Sequence: MLVTPSMAMR
- Kd (HLA-A*68:01; [10]): 32 nM
- Kd (HLA-A*33:01; [10]): 34.6 nM
- Kd (HLA-A*31:01; [10]): ≥ 51700 nM

Sequence: RVSTPQGLVK
- Kd (HLA-A*03:01; [6]): 5.93 nM
- Kd (HLA-A*11:01; [6]): 54.2 nM

Sequence: TAMAFHLSTR
- Kd (HLA-A*68:01; [6]): 8.51 nM
- Kd (HLA-A*33:01; [6]): 16.7 nM
- Kd (HLA-A*31:01; [6]): 34.3 nM

Sequence: AANEMGLIEK
- Kd (HLA-A*11:01; [6]): 281 nM

Sequence: DMISYGGGWR
- Kd (HLA-A*33:01; [6]): 506 nM

Sequence: LMKSLGGGR
- Kd (HLA-A*31:01; [10]): ≥ 57600 nM

Sequence: NYLDYMTSMK
- Kd (HLA-A*33:01; [10]): 173 nM

Sequence: VTNHMEGEHK
- Kd (HLA-A*11:01; [4]): 508 nM

Sequence: FTDPSSVAAR
- Kd (HLA-A*68:01; [6]): 67.7 nM

Sequence: LISYGGGWK
- Kd (HLA-A*03:01; [4]): 338 nM

Sequence: ITANPVVTK
- Kd (HLA-A*68:01; [8]): 47.9 nM
- Kd (HLA-A*03:01; [8]): 18.1 nM
- Kd (HLA-A*11:01; [8]): 22.3 nM

Sequence: IFLFLMSGR
- Kd (HLA-A*33:01; [11]): 10 nM
- Kd (HLA-A*31:01; [11]): 59.9 nM

Sequence: MIEEVMRSR
- Kd (HLA-A*33:01; [10]): 90.8 nM

Sequence: MVSRLLLNR
- Kd (HLA-A*68:01; [8]): 13 nM
- Kd (HLA-A*33:01; [8]): 8.31 nM
- Kd (HLA-A*31:01; [8]): 4.81 nM
- Kd (HLA-A*11:01; [8]): 49.9 nM

Sequence: RMLNILNGR
- Kd (HLA-A*31:01; [6]): 1.16 nM

Sequence: VIDPRRCLK
- Kd (HLA-A*03:01; [10]): 49.3 nM
- Kd (HLA-A*11:01; [10]): 1500 nM

Sequence: DFKEFASGR
- Kd (HLA-A*33:01; [6]): 2.23 nM

Sequence: VMAFHLTTR
- Kd (HLA-A*03:01; [11]): 51.7 nM
- Kd (HLA-A*31:01; [11]): 7.39 nM

Sequence: DFTLFIKTGH
- Kd (HLA-A*68:01; [12]): 2480 nM
- Kd (HLA-A*33:01; [12]): 131 nM
- Kd (HLA-A*31:01; [12]): 4540 nM
- Kd (HLA-A*11:01; [12]): ≥ 58700 nM

Sequence: ILARWSSFKK
- Kd (HLA-A*03:01; [10]): 1.39 nM

Sequence: YLALIATFK
- Kd (HLA-A*68:01; [8]): 31.8 nM
- Kd (HLA-A*03:01; [8]): 4.7 nM

Sequence: IGKMFEATAR
- Kd (HLA-A*33:01; [10]): 637 nM
